The values below come from US20100209346A1.

What all share (test): dot blot; antigen dilution series 100-0.01 pmol on nitrocellulose
In assay [1] the target is Aβ(1-42) oligomer B preparation of example 6b (oligomers of human amyloid β(1-42) protein with apparent molecular weights of 38 kDa and 48 kDa) (human).
In assay [2] the target is HFIP-treated Aβ(1-42) monomer of example 1a (human).
The target of assay [3] is Aβ(1-42) fibril preparation of example 27 (human).

Turning to monoclonal antibody 6E10 (Signet), the detection limit (minimum amount of antigen visible) was 0.1 pmol in assay [1], 0.1 pmol in assay [2] and 1 pmol in assay [3].
